Patent US20140087995A1 (published 2014)
Numbered stars: 1 amine (or outer) side, 2 acyl side, 3 side chain; on linkers, the order of the positions; unused ones are H or OH. Bridge positions count the residues as written; N and C are the ends. Side chains are listed from the residue outwards. Ends that are not written are not given here. * marks the point of attachment. C20 diacid = O=C(O)CCCCCCCCCCCCCCCCCCC(=O)*; γGlu = O=C(O)[C@H](CCC(=O)[*:2])N[*:1]

T1: human calcitonin receptor (human, UniProt P30988 25-474)
T1 construct: whole, on cells; Assay used cell membranes, not intact cells; also called hCTR; hCT
T1 sequence (looked up): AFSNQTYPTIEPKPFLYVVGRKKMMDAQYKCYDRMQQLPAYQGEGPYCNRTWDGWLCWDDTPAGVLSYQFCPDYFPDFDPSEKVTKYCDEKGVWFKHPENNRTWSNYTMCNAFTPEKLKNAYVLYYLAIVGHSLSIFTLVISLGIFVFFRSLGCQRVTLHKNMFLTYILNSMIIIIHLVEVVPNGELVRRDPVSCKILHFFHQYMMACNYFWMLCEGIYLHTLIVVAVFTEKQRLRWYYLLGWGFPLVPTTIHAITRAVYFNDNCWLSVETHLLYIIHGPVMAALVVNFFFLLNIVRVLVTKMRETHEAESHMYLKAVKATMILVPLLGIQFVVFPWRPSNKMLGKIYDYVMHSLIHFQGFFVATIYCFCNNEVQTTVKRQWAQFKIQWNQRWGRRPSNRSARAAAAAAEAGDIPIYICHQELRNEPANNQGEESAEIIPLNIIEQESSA

T2: human amylin receptor (amylin 3(a) receptor: human calcitonin receptor with RAMP-3) (human, UniProt P30988 25-474; O60896 24-148)
T2 construct: whole, on cells; Assay used cell membranes of the Amylin 3(a)/CRE-luc BHK cells, not intact cells; also called hAmylin-R; hAmylinR
T2 sequence (looked up) 1: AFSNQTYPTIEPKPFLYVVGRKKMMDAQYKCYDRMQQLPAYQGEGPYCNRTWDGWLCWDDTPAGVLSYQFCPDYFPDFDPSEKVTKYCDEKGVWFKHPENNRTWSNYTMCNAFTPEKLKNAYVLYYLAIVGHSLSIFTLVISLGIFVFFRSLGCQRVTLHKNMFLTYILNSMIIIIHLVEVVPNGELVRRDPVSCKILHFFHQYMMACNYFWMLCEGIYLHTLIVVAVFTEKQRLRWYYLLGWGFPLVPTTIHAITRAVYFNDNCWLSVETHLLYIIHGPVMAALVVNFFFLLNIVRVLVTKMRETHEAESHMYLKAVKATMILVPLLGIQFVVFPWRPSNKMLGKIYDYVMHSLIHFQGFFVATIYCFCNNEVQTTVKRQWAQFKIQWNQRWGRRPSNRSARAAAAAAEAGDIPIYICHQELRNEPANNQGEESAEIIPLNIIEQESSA
T2 sequence (looked up) 2: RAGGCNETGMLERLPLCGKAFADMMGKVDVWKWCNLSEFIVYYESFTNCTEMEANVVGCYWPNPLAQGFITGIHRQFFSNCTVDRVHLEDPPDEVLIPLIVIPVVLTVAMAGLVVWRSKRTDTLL


What was measured:
[1] = molecular target: T1, human calcitonin receptor; experiment: SPA competition with 125I-calcitonin on membranes of BHK cells with human calcitonin receptor (Assay VII)
Summary of the method: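 BHK hCTR membranes 35 ng/μL + SPA beads 0.05 mg/well; buffer 50 mM Hepes pH 7.4, 1 mM CaCl2, 5 mM MgCl₂, 0.1% OA, 0.02% Tween20. 120 min, 25° C., shaking. Scintillation count; IC50 by one-site binding competition.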

[2] = molecular target: T1, human calcitonin receptor; experiment: ratio IC50 hCTR / IC50 hAmylin-R (reference: human amylin receptor), SPA competition assays
Summary of the method: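 IC₅₀ values were derived by one-site competition analysis of SPA counts. Cell membranes (35 ng/μL) with SPA beads were incubated with test compounds for 120 min at 25° C in Hepes buffer, pH 7.4, containing CaCl2, MgCl₂, OA and Tween20.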

[3] = molecular target: T2, human amylin receptor (amylin 3(a) …); experiment: SPA competition with 125I-rat amylin on membranes of BHK cells with human calcitonin receptor and RAMP-3 (Assay V)
Summary of the method: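 Cell membranes were prepared by homogenisation in Na-HEPES/EDTA buffer, pH 7.4, and stored at −80° C. They were then coupled to SPA beads at 35 ng/μL final and exposed to compounds in assay buffer containing CaCl2, MgCl₂, OA and Tween20. After 120 min at 25° C, plates were counted and IC₅₀ derived.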

| Binder | IC50 [1] [nM] | Ratio hCT/hAmylin binding [2] | IC50 [3] [nM] |
| --- | --- | --- | --- |
| K([γGlu-γGlu-C20 diacid])CNTATCATQRLANFLRHSSPNFGAIPSSTNVGHNTY-NH2 (disulfide 2-7; N-terminus assumed; SMILES CC[C@H](C)[C@H](NC(=O)[C@H](C)NC(=O)CNC(=O)[C@H](Cc1ccccc1)NC(=O)[C@H](CC(N)=O)NC(=O)[C@@H]1CCCN1C(=O)[C@H](CO)NC(=O)[C@H](CO)NC(=O)[C@H](Cc1c[nH]cn1)NC(=O)[C@H](CCCNC(=N)N)NC(=O)[C@H](CC(C)C)NC(=O)[C@H](Cc1ccccc1)NC(=O)[C@H](CC(N)=O)NC(=O)[C@H](C)NC(=O)[C@H](CC(C)C)NC(=O)[C@H](CCCNC(=N)N)NC(=O)[C@H](CCC(N)=O)NC(=O)[C@@H](NC(=O)[C@H](C)NC(=O)[C@@H]1CSSC[C@H](NC(=O)[C@@H](N)CCCCNC(=O)CC[C@H](NC(=O)CC[C@H](NC(=O)CCCCCCCCCCCCCCCCCCC(=O)O)C(=O)O)C(=O)O)C(=O)N[C@@H](CC(N)=O)C(=O)N[C@@H]([C@@H](C)O)C(=O)N[C@@H](C)C(=O)N[C@@H]([C@@H](C)O)C(=O)N1)[C@@H](C)O)C(=O)N1CCC[C@H]1C(=O)N[C@@H](CO)C(=O)N[C@@H](CO)C(=O)N[C@H](C(=O)N[C@@H](CC(N)=O)C(=O)N[C@H](C(=O)NCC(=O)N[C@@H](Cc1c[nH]cn1)C(=O)N[C@@H](CC(N)=O)C(=O)N[C@H](C(=O)N[C@@H](Cc1ccc(O)cc1)C(N)=O)[C@@H](C)O)C(C)C)[C@@H](C)O, also called compound 86) | 133 | 159 | 0.833 |
| K([γGlu-γGlu-C20 diacid])CNTATCATQRLANFLRHSSPNFGAIPSSTPVGPRTY-NH2 (disulfide 2-7; N-terminus assumed; SMILES CC[C@H](C)[C@H](NC(=O)[C@H](C)NC(=O)CNC(=O)[C@H](Cc1ccccc1)NC(=O)[C@H](CC(N)=O)NC(=O)[C@@H]1CCCN1C(=O)[C@H](CO)NC(=O)[C@H](CO)NC(=O)[C@H](Cc1c[nH]cn1)NC(=O)[C@H](CCCNC(=N)N)NC(=O)[C@H](CC(C)C)NC(=O)[C@H](Cc1ccccc1)NC(=O)[C@H](CC(N)=O)NC(=O)[C@H](C)NC(=O)[C@H](CC(C)C)NC(=O)[C@H](CCCNC(=N)N)NC(=O)[C@H](CCC(N)=O)NC(=O)[C@@H](NC(=O)[C@H](C)NC(=O)[C@@H]1CSSC[C@H](NC(=O)[C@@H](N)CCCCNC(=O)CC[C@H](NC(=O)CC[C@H](NC(=O)CCCCCCCCCCCCCCCCCCC(=O)O)C(=O)O)C(=O)O)C(=O)N[C@@H](CC(N)=O)C(=O)N[C@@H]([C@@H](C)O)C(=O)N[C@@H](C)C(=O)N[C@@H]([C@@H](C)O)C(=O)N1)[C@@H](C)O)C(=O)N1CCC[C@H]1C(=O)N[C@@H](CO)C(=O)N[C@@H](CO)C(=O)N[C@H](C(=O)N1CCC[C@H]1C(=O)N[C@H](C(=O)NCC(=O)N1CCC[C@H]1C(=O)N[C@@H](CCCNC(=N)N)C(=O)N[C@H](C(=O)N[C@@H](Cc1ccc(O)cc1)C(N)=O)[C@@H](C)O)C(C)C)[C@@H](C)O) | 42.8 | 48.6 | 0.88 |
| K([γGlu-γGlu-C20 diacid])CNTATCATQRLADFLRHSSPNFGAIPSSTNVGPRTY-NH2 (disulfide 2-7; N-terminus assumed; SMILES CC[C@H](C)[C@H](NC(=O)[C@H](C)NC(=O)CNC(=O)[C@H](Cc1ccccc1)NC(=O)[C@H](CC(N)=O)NC(=O)[C@@H]1CCCN1C(=O)[C@H](CO)NC(=O)[C@H](CO)NC(=O)[C@H](Cc1c[nH]cn1)NC(=O)[C@H](CCCNC(=N)N)NC(=O)[C@H](CC(C)C)NC(=O)[C@H](Cc1ccccc1)NC(=O)[C@H](CC(=O)O)NC(=O)[C@H](C)NC(=O)[C@H](CC(C)C)NC(=O)[C@H](CCCNC(=N)N)NC(=O)[C@H](CCC(N)=O)NC(=O)[C@@H](NC(=O)[C@H](C)NC(=O)[C@@H]1CSSC[C@H](NC(=O)[C@@H](N)CCCCNC(=O)CC[C@H](NC(=O)CC[C@H](NC(=O)CCCCCCCCCCCCCCCCCCC(=O)O)C(=O)O)C(=O)O)C(=O)N[C@@H](CC(N)=O)C(=O)N[C@@H]([C@@H](C)O)C(=O)N[C@@H](C)C(=O)N[C@@H]([C@@H](C)O)C(=O)N1)[C@@H](C)O)C(=O)N1CCC[C@H]1C(=O)N[C@@H](CO)C(=O)N[C@@H](CO)C(=O)N[C@H](C(=O)N[C@@H](CC(N)=O)C(=O)N[C@H](C(=O)NCC(=O)N1CCC[C@H]1C(=O)N[C@@H](CCCNC(=N)N)C(=O)N[C@H](C(=O)N[C@@H](Cc1ccc(O)cc1)C(N)=O)[C@@H](C)O)C(C)C)[C@@H](C)O, also called compound 130) | 127 | 280 | 0.453 |

Further lines, results first:

| IC50 [1] [nM] | Ratio hCT/hAmylin binding [2] | IC50 [3] [nM] | Binder |
| --- | --- | --- | --- |
| 34.9 | 46.5 | 0.75 | K([γGlu-γGlu-C20 diacid])CNTATCATQRLAEFLRHSSPNFGAIPSSTNVGRNTY-NH2 (disulfide 2-7; N-terminus assumed; SMILES CC[C@H](C)[C@H](NC(=O)[C@H](C)NC(=O)CNC(=O)[C@H](Cc1ccccc1)NC(=O)[C@H](CC(N)=O)NC(=O)[C@@H]1CCCN1C(=O)[C@H](CO)NC(=O)[C@H](CO)NC(=O)[C@H](Cc1c[nH]cn1)NC(=O)[C@H](CCCNC(=N)N)NC(=O)[C@H](CC(C)C)NC(=O)[C@H](Cc1ccccc1)NC(=O)[C@H](CCC(=O)O)NC(=O)[C@H](C)NC(=O)[C@H](CC(C)C)NC(=O)[C@H](CCCNC(=N)N)NC(=O)[C@H](CCC(N)=O)NC(=O)[C@@H](NC(=O)[C@H](C)NC(=O)[C@@H]1CSSC[C@H](NC(=O)[C@@H](N)CCCCNC(=O)CC[C@H](NC(=O)CC[C@H](NC(=O)CCCCCCCCCCCCCCCCCCC(=O)O)C(=O)O)C(=O)O)C(=O)N[C@@H](CC(N)=O)C(=O)N[C@@H]([C@@H](C)O)C(=O)N[C@@H](C)C(=O)N[C@@H]([C@@H](C)O)C(=O)N1)[C@@H](C)O)C(=O)N1CCC[C@H]1C(=O)N[C@@H](CO)C(=O)N[C@@H](CO)C(=O)N[C@H](C(=O)N[C@@H](CC(N)=O)C(=O)N[C@H](C(=O)NCC(=O)N[C@@H](CCCNC(=N)N)C(=O)N[C@@H](CC(N)=O)C(=O)N[C@H](C(=O)N[C@@H](Cc1ccc(O)cc1)C(N)=O)[C@@H](C)O)C(C)C)[C@@H](C)O, also called compound 88) |
| 8.56 | 49.8 | 0.172 | K([γGlu-γGlu-C20 diacid])CNTATCATQRLADFLRHSSPNFGAIPSSTNVGPETY-NH2 (disulfide 2-7; N-terminus assumed; SMILES CC[C@H](C)[C@H](NC(=O)[C@H](C)NC(=O)CNC(=O)[C@H](Cc1ccccc1)NC(=O)[C@H](CC(N)=O)NC(=O)[C@@H]1CCCN1C(=O)[C@H](CO)NC(=O)[C@H](CO)NC(=O)[C@H](Cc1c[nH]cn1)NC(=O)[C@H](CCCNC(=N)N)NC(=O)[C@H](CC(C)C)NC(=O)[C@H](Cc1ccccc1)NC(=O)[C@H](CC(=O)O)NC(=O)[C@H](C)NC(=O)[C@H](CC(C)C)NC(=O)[C@H](CCCNC(=N)N)NC(=O)[C@H](CCC(N)=O)NC(=O)[C@@H](NC(=O)[C@H](C)NC(=O)[C@@H]1CSSC[C@H](NC(=O)[C@@H](N)CCCCNC(=O)CC[C@H](NC(=O)CC[C@H](NC(=O)CCCCCCCCCCCCCCCCCCC(=O)O)C(=O)O)C(=O)O)C(=O)N[C@@H](CC(N)=O)C(=O)N[C@@H]([C@@H](C)O)C(=O)N[C@@H](C)C(=O)N[C@@H]([C@@H](C)O)C(=O)N1)[C@@H](C)O)C(=O)N1CCC[C@H]1C(=O)N[C@@H](CO)C(=O)N[C@@H](CO)C(=O)N[C@H](C(=O)N[C@@H](CC(N)=O)C(=O)N[C@H](C(=O)NCC(=O)N1CCC[C@H]1C(=O)N[C@@H](CCC(=O)O)C(=O)N[C@H](C(=O)N[C@@H](Cc1ccc(O)cc1)C(N)=O)[C@@H](C)O)C(C)C)[C@@H](C)O) |
